B1: bsAb039 (bispecific antibody, not shown: small tags and cut ends; a dimerising Fc or GST)
heavy (part 1 of 2): QVQLVQSGVEVKKPGASVKVSCKASGYTFTNYYMYWVRQAPGQGLEWMGGINPSNGGTNFNEKFKNRVTLTTDSSTTTAYMELKSLQFDDTAVYYCARRDYRFDMGFDYWGQGTTVTVSS
heavy (part 2 of 2): GGGGSGGGGSGGGGSGGGGSDIQMTQSPSSLSASVGDRVTITCHASQNINVWLSWYQQKPGKAPKLLIYKASNLHTGVPSRFTGSGSGTDFTFTISSLQPEDIATYYCQQGQTYPYTFGQGTKLEIKGGGGSGGGGSGGGGSGGGGSQVQLVQSGAEVKKPGASVKLSCKASGYIFTRYYMYWVKQRPGQGLEWIGEINPNNGGTKFNEKFKNRATLTVDKSISTAYMELSRLRSDDTAVYYCSREDDYDGTPFAMDYWGQGTLVTVSS
heavy: B1 heavy (part 2 of 2)
light: EIVLTQSPATLSLSPGERATLSCRASKGVSTSGYSYLHWYQQKPGQAPRLLIYLASYLESGVPARFSGSGSGTDFTLTISSLEPEDFAVYYCQHSRDLPLTFGGGTKVEIKRTVAAPSVFIFPPSDEQLKSGTASVVCLLNNFYPREAKVQWKVDNALQSGNSQESVTEQDSKDSTYSLSSTLTLSKADYEKHKVYACEVTHQGLSSPVTKSFNRGEC
B2: bsAb042 (bispecific antibody, not shown: small tags and cut ends; a dimerising Fc or GST)
heavy 1: B1 heavy (part 1 of 2)
heavy 2: QVQLVQSGAEVKKPGASVKLSCKASGYIFTRYYMYWVKQRPGQGLEWIGEINPNNGGTKFNEKFKNRATLTVDKSISTAYMELSRLRSDDTAVYYCSREDDYDGTPFAMDYWGQGTLVTVSSGGGGSGGGGSGGGGSGGGGSDIQMTQSPSSLSASVGDRVTITCHASQNINVWLSWYQQKPGKAPKLLIYKASNLHTGVPSRFTGSGSGTDFTFTISSLQPEDIATYYCQQGQTYPYTFGQGTKLEIKGGGGSGGGGSGGGGSGGGGS
light: EIVLTQSPATLSLSPGERATLSCRASKGVSTSGYSYLHWYQQKPGQAPRLLIYLASYLESGVPARFSGSGSGTDFTLTISSLEPEDFAVYYCQHSRDLPLTFGGGTKVEIKRTVAAPSVFIFPPSDEQLKSGTASVVCLLNNFYPREAKVQWKVDNALQSGNSQESVTEQDSKDSTYSLSSTLTLSKADYEKHKVYACEVTHQGLSSPVTKSFNRGECGGGGSGGGGSGGGGSGGGGSDIQMTQSPSSLSASVGDRVTITCHASQNINVWLSWYQQKPGKAPKLLIYKASNLHTGVPSRFTGSGSGTDFTFTISSLQPEDIATYYCQQGQTYPYTFGQGTKLEIKGGGGSGGGGSGGGGSGGGGSQVQLVQSGAEVKKPGASVKLSCKASGYIFTRYYMYWVKQRPGQGLEWIGEINPNNGGTKFNEKFKNRATLTVDKSISTAYMELSRLRSDDTAVYYCSREDDYDGTPFAMDYWGQGTLVTVSS
B3: bsAb053 (bispecific antibody, not shown: small tags and cut ends)
heavy (part 1 of 2): B1 heavy (part 1 of 2)
heavy (part 2 of 2): GGGGSGGGGSGGGGSGGGGSQVQLVQSGAEVKKPGASVKLSCKASGYIFTRYYMYWVKQRPGQGLEWIGEINPNNGGTKFNEKFKNRATLTVDKSISTAYMELSRLRSDDTAVYYCSREDDYDGTPFAMDYWGQGTLVTVSSGGGGSGGGGSGGGGSGGGGSDIQMTQSPSSLSASVGDRVTITCHASQNINVWLSWYQQKPGKAPKLLIYKASNLHTGVPSRFTGSGSGTDFTFTISSLQPEDIATYYCQQGQTYPYTFGQGTKLEIK
heavy: B1 heavy (part 1 of 2)
light: B1 light
B4: bsAb059 (bispecific antibody)
heavy: QVQLVQSGVEVKKPGASVKVSCKASGYTFTNYYMYWVRQAPGQGLEWMGGINPSNGGTNFNEKFKNRVTLTTDSSTTTAYMELKSLQFDDTAVYYCARRDYRFDMGFDYWGQGTTVTVSSASTKGPSVFPLAPSSKSTSGGTAALGCLVKDYFPEPVTVSWNSGALTSGVHTFPAVLQSSGLYSLSSVVTVPSSSLGTQTYICNVNHKPSNTKVDKRVEPKSCDKTHTCPPCPAPEFEGGPSVFLFPPKPKDTLMISRTPEVTCVVVDVSHEDPEVKFNWYVDGVEVHNAKTKPREEQYNSTYRVVSVLTVLHQDWLNGKEYKCKVSNKALPASIEKTISKAKGQPREPQVYTLPPSREEMTKNQVSLTCLVKGFYPSDIAVEWESNGQPENNYKTTPPVLDSDGSFFLYSKLTVDKSRWQQGNVFSCSVMHEALHNHYTQKSLSLSPG
light: QVQLVQSGAEVKKPGASVKLSCKASGYIFTRYYMYWVKQRPGQGLEWIGEINPNNGGTKFNEKFKNRATLTVDKSISTAYMELSRLRSDDTAVYYCSREDDYDGTPFAMDYWGQGTLVTVSSGGGGSGGGGSGGGGSGGGGSDIQMTQSPSSLSASVGDRVTITCHASQNINVWLSWYQQKPGKAPKLLIYKASNLHTGVPSRFTGSGSGTDFTFTISSLQPEDIATYYCQQGQTYPYTFGQGTKLEIKGGGGSGGGGSGGGGSGGGGSEIVLTQSPATLSLSPGERATLSCRASKGVSTSGYSYLHWYQQKPGQAPRLLIYLASYLESGVPARFSGSGSGTDFTLTISSLEPEDFAVYYCQHSRDLPLTFGGGTKVEIKRTVAAPSVFIFPPSDEQLKSGTASVVCLLNNFYPREAKVQWKVDNALQSGNSQESVTEQDSKDSTYSLSSTLTLSKADYEKHKVYACEVTHQGLSSPVTKSFNRGEC
B5: bsAb060 (bispecific antibody)
heavy: B4 heavy
light: DIQMTQSPSSLSASVGDRVTITCHASQNINVWLSWYQQKPGKAPKLLIYKASNLHTGVPSRFTGSGSGTDFTFTISSLQPEDIATYYCQQGQTYPYTFGQGTKLEIKGGGGSGGGGSGGGGSGGGGSQVQLVQSGAEVKKPGASVKLSCKASGYIFTRYYMYWVKQRPGQGLEWIGEINPNNGGTKFNEKFKNRATLTVDKSISTAYMELSRLRSDDTAVYYCSREDDYDGTPFAMDYWGQGTLVTVSSGGGGSGGGGSGGGGSGGGGSEIVLTQSPATLSLSPGERATLSCRASKGVSTSGYSYLHWYQQKPGQAPRLLIYLASYLESGVPARFSGSGSGTDFTLTISSLEPEDFAVYYCQHSRDLPLTFGGGTKVEIKRTVAAPSVFIFPPSDEQLKSGTASVVCLLNNFYPREAKVQWKVDNALQSGNSQESVTEQDSKDSTYSLSSTLTLSKADYEKHKVYACEVTHQGLSSPVTKSFNRGEC
B6: bsAb003 (bispecific antibody, human IgG1, kappa)
heavy: QVQLVQSGAEVKKPGASVKLSCKASGYIFTRYYMYWVKQRPGQGLEWIGEINPNNGGTKFNEKFKNRATLTVDKSISTAYMELSRLRSDDTAVYYCSREDDYDGTPFAMDYWGQGTLVTVSSASTKGPSVFPLAPSSKSTSGGTAALGCLVKDYFPEPVTVSWNSGALTSGVHTFPAVLQSSGLYSLSSVVTVPSSSLGTQTYICNVNHKPSNTKVDKRVEPKSCDKTHTCPPCPAPEFEGGPSVFLFPPKPKDTLMISRTPEVTCVVVDVSHEDPEVKFNWYVDGVEVHNAKTKPREEQYNSTYRVVSVLTVLHQDWLNGKEYKCKVSNKALPASIEKTISKAKGQPREPQVYTLPPSREEMTKNQVSLTCLVKGFYPSDIAVEWESNGQPENNYKTTPPVLDSDGSFFLYSKLTVDKSRWQQGNVFSCSVMHEALHNHYTQKSLSLSPGGGGGSGGGGSGGGGSGGGGSEVQLVESGGGLVQPGGSLRLSCAASGFTFSRYWMSWVRQAPGKGLEWVANIKQDGSEKYYVDSVKGRFTISRDNAKNSLYLQMNSLRAEDTAVYYCAREGGWFGELAFDYWGQGTLVTVSSGGGGSGGGGSGGGGSGGGGSEIVLTQSPGTLSLSPGERATLSCRASQRVSSSYLAWYQQKPGQAPRLLIYDASSRATGIPDRFSGSGSGTDFTLTISRLEPEDFAVYYCQQYGSLPWTFGQGTKVEIK
light: not shown
B7: bsAb011 (bispecific antibody)
heavy: QVQLVQSGAEVKKPGASVKLSCKASGYIFTRYYMYWVKQRPGQGLEWIGEINPNNGGTKFNEKFKNRATLTVDKSISTAYMELSRLRSDDTAVYYCSREDDYDGTPFAMDYWGQGTLVTVSSASTKGPSVFPLAPSSKSTSGGTAALGCLVKDYFPEPVTVSWNSGALTSGVHTFPAVLQSSGLYSLSSVVTVPSSSLGTQTYICNVNHKPSNTKVDKRVEPKSCDKTHTCPPCPAPEFEGGPSVFLFPPKPKDTLMISRTPEVTCVVVDVSHEDPEVKFNWYVDGVEVHNAKTKPREEQYNSTYRVVSVLTVLHQDWLNGKEYKCKVSNKALPASIEKTISKAKGQPREPQVYTLPPSREEMTKNQVSLTCLVKGFYPSDIAVEWESNGQPENNYKTTPPVLDSDGSFFLYSKLTVDKSRWQQGNVFSCSVMHEALHNHYTQKSLSLSPG
light: not shown
B8: bsAb001 (bispecific antibody, human IgG1, kappa)
heavy: QVQLVQSGAEVKKPGASVKLSCKASGYIFTRYYMYWVKQRPGQGLEWIGEINPNNGGTKFNEKFKNRATLTVDKSISTAYMELSRLRSDDTAVYYCSREDDYDGTPFAMDYWGQGTLVTVSSASTKGPSVFPLAPSSKSTSGGTAALGCLVKDYFPEPVTVSWNSGALTSGVHTFPAVLQSSGLYSLSSVVTVPSSSLGTQTYICNVNHKPSNTKVDKRVEPKSCDKTHTCPPCPAPEFEGGPSVFLFPPKPKDTLMISRTPEVTCVVVDVSHEDPEVKFNWYVDGVEVHNAKTKPREEQYNSTYRVVSVLTVLHQDWLNGKEYKCKVSNKALPASIEKTISKAKGQPREPQVYTLPPSREEMTKNQVSLTCLVKGFYPSDIAVEWESNGQPENNYKTTPPVLDSDGSFFLYSKLTVDKSRWQQGNVFSCSVMHEALHNHYTQKSLSLSPGGGGGSGGGGSGGGGSGGGGSQVQLVQSGVEVKKPGASVKVSCKASGYTFTNYYMYWVRQAPGQGLEWMGGINPSNGGTNFNEKFKNRVTLTTDSSTTTAYMELKSLQFDDTAVYYCARRDYRFDMGFDYWGQGTTVTVSSGGGGSGGGGSGGGGSGGGGSEIVLTQSPATLSLSPGERATLSCRASKGVSTSGYSYLHWYQQKPGQAPRLLIYLASYLESGVPARFSGSGSGTDFTLTISSLEPEDFAVYYCQHSRDLPLTFGGGTKVEIK
light: not shown

Biological target: BTN3A expressed at the cell surface (human), O00481
Sequence (O00481 30-513): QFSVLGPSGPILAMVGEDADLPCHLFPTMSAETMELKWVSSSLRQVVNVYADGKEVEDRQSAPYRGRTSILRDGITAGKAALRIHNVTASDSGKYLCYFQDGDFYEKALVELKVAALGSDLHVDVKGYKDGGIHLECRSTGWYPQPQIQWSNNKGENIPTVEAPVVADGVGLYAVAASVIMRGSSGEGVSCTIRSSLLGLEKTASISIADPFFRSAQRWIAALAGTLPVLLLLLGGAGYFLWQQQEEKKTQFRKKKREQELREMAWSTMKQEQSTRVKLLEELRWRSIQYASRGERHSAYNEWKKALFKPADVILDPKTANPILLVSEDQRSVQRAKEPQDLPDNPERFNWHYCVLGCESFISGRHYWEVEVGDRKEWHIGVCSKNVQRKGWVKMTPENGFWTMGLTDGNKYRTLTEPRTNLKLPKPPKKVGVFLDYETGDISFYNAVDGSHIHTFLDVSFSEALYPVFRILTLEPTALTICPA
Assay: cell-based or functional assay

Binder | Jurkat-Vy9Vo2 TCR MOP activation at 0.5 nM (fold-change to medium) | Jurkat-Vy9Vo2 TCR MOP activation at 5 nM (fold-change to medium)
B1 | 0.9 | 1
B2 | 1.1 | 1
B3 | 1.2 | 1.1
B4 | 1.1 | 1.1
B5 | 1.1 | 1.1
B6 | 13.6 | 10.7
B7 | 12.2 | 9.8
B8 | 6.5 | 4.5

From US20260265379A1
